The source of these data is US20050182242A1, “Global analysis of protein activities using proteome chips” (priority 2001, published 2005).

Common to all, as to conditions: liposome binding signal on yeast proteome chip, Cy3-streptavidin detection
The subject of series [1] is PI(3,4)P2 liposomes. Briefly: Yeast proteome chip probed with PI(3,4)P2 liposomes.
The test system of series [2] is PI(4)P liposomes. Kind of series: Yeast proteome chip probed with PI(4)P liposomes.
Series [3] relates to PI(3)P liposomes. Briefly: Yeast proteome chip probed with PI(3)P liposomes.
Series [4] relates to PI(3,4,5)P3 liposomes. Kind of series: Yeast proteome chip probed with PI(3,4,5)P3 liposomes.
In series [5] the test system is phosphatidylcholine (PC) liposomes. Kind of series: Yeast proteome chip probed with PC liposomes. Put shortly:
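Binding detected by fluorescent streptavidin (Cy3 or Cy5, >30 min in the dark at RT) recognizing biotin-DHPE (1% w/w) in PC liposomes, which carried 5% (w/w) of the named phosphoinositide unless PC-only. Liposomes, made by sonication in TBS, were applied to blocked chips for 1 h at RT, then washed in PBS.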

In series [6] the test system is PI(4,5)P2 liposomes. Briefly: Yeast proteome chip probed with PI(4,5)P2 liposomes.

B1: SPO1: yeast GST-HisX6 fusion protein on proteome chip (protein, UniProt P53541 18-631, looked up)
Putative meiotic …: TAPFQVQCPSSPLIREAKHELCPEETLYLKKKKIKTKNKLIQFLKSLTEAKFSSKFYKRVLKDPPKIGIAISGGGYRSMLVGTGFISQMNDYGLFEYSDYIAGLSGGSWILMDLVVQNFEVKSLLQEWDLEEDLLLGIPEFDISEEEIVTNAKKEYNDNDLKMKKRQGGSLITSSSNFYEQIEEIMNSIEEIPEDYMITKRNLNPLARLKKIFFPNNTFTGTDAKIETFKKVLDFYKSLHLKIKPKKMEGFQISFTDYWGKAIVQRLKKNFDDDPNHSFSFSKLVNSSKKFKECSVPIPIFVANCKNGLLSNVIFEFTPFEFGSWENILRLFVKLPYLGSKIVSGKAEKCINNFDDLGFITATSSSIFNNVLIFIWNLASQSSREAMKALNMVMGIFGLGKEEIFSISKDSSRLETDYAVYQPNPFYLYPEKDNVLTNKNHLYLVDGGEDGENIPLRTLVIPERELDVIFVLDSSSDIDNYPNGSKLKRIFEKLDEENVHYQFPNNVKTFTHPIVIGCNATKRTGHDSFLPIIIYHANANHGNASNTSTFKITYNQSEVSSMLPTGRGVFSNDYDLYYKNCLGCILTKRTMDRLPRKKKFSPFCLQCFKDYCYS
modifications: GST-His6 tag
notes: yeast GST-HisX6 fusion protein on proteome chip
Turning to B1, the “PI(3, 4)P2” value in series [1] came out at 18.99. Also, the “PI(4)P” value in series [2] was 0.44. Also, in series [3], the “PI(3)P” value was −6.50. Moreover, in series [4], the “PI(3, 4, 5)P3” value was −9.22. In addition, the PC in series [5] is listed as 5.58. Also, the “PI(4, 5)P2” value in series [6] is on record as 14.37.

B2: MUB1: yeast GST-HisX6 fusion protein on proteome chip (protein, UniProt Q03162 1-620, looked up)
MYND-type zinc finger protein …: MRDSNHRSLTSNKPIVTITSTVYDRRALDINSSIPLINSLNYLTYLTSNSSKVRETVANDGALERLVSILRSCHLSLFELLDLDLENFNEHENIKDLWKEKRLALCAWKWTLTFQCLVLTGTRGTEQIRKKVVMSGVLSVLVTVLDNYLLYHKNYDFIKDQTMTFDFKGITTETMYKFMRKDENETYQQYIEFITGQDKLKLSTDKNFLNERLVAPSMTIPTDFSDIWGRFADLASNFEPDQERHDDDIDIDSEVESENFDAHKNFFSQPDINRPTISTPREFFLGRIVPKQDDVIWSLQLLAFVSKYTYMKSTLQNVELVESLSFRSMAYKIKQRISEENDLEEQERDVTVKLSSLYPYLSKNPENNSKVKALDTSKMDPFFKELEELSNRCQQEEQNEICNNHCPVLNLFERYRVPKPSDDNAYGKDKERINLRKKISDNFERRWSYDKMKKELTNIVYKNKVLTNVVNIFPLVEKYTVSAENTHDVIYWSSVIMRNSCRKNEILGVRQCANFSCGKWEDFPRQFAKCRRCKRTKYCSRKCQLKAWGYHRYWCHEVGSSHMRSTNTTTGVNTPNEPSSLNATATTAADVSNSTSTFTPNISTTVPDEISNRDENSIPE
modifications: GST-HisX6 tag
notes: as for B1
Take B2: the “PI(3, 4)P2” value in series [1] amounted to 9.89. Moreover, in series [2], the “PI(4)P” value amounted to 19.38. For the same molecule, the “PI(3)P” value in series [3] was −6.00. Further, the “PI(3, 4, 5)P3” value in series [4] amounted to 9.79. This molecule returned a PC in series [5] of 2.64. The “PI(4, 5)P2” value in series [6] is listed as −4.79.

B3: YEL064C: yeast GST-HisX6 fusion protein on proteome chip (protein, UniProt P39981 1-480, looked up)
Vacuolar amino acid …: MSELGEYSKLENKELRTEFELTNFPFPGTTDNDSDDGSQGQNSLNIITPDMDDTLVNDVLRENDKKSSMRMAFMNLANSILGAGIITQPFAIKNAGILGGLLSYVALGFIVDWTLRLIVINLTLAGKRTYQGTVEHVMGKKGKLLILFTNGLFAFGGCIGYCIIIGDTIPHVLRAIFSQNDGNVHFWLRRNVIIVMVTTFISFPLSMKRNIEALSKASFLAVISMIIIVLTVVIRGPMLPYDWKGHSLKLSDFFMKATIFRSLSVISFALVCHHNTSFIFFSMRNRSVAKFTRLTHISIIISVICCALMGYSGFAVFKEKTKGNVLNSFPGTDTAINIARLCFGFNMLTTFPMEIFVLRDVVGNLLHECNLIKNYDEHTQLSGKQHVVITSSLVFITMGISLTTCNLGALFELIGATTASTMAYILPPYTNLLLTSKKKSWKERLPFYLCICFGFMIMIISSTQTIIDAVNGSDGQHCQI
modifications: GST-His6 tag
notes: as for B1
With B3, the “PI(3, 4)P2” value in series [1] is on record as −3.14. In series [2], the “PI(4)P” value is recorded as −3.92. Moreover, the “PI(3)P” value in series [3] is recorded as −5.00. Further, the “PI(3, 4, 5)P3” value in series [4] was −0.90. In addition, the PC in series [5] is on record as 5.28. In series [6], the “PI(4, 5)P2” value was 6.53.
